This note sets out measurements from patent US20210388081A1 (Memorial Sloan Kettering, published 2021).

For one assay, the target named is SLAMF9 protein (UniProt Q96A28 19-236, limits assumed). As to the kind of experiment: phage clone on SLAMF9 protein.
In assay [1] the target is T1, FcRL1, overexpressed on 3T3 cells (UniProt Q96LA6 17-429, limits assumed).
T1 construct: whole, on cells
T1 sequence (looked up): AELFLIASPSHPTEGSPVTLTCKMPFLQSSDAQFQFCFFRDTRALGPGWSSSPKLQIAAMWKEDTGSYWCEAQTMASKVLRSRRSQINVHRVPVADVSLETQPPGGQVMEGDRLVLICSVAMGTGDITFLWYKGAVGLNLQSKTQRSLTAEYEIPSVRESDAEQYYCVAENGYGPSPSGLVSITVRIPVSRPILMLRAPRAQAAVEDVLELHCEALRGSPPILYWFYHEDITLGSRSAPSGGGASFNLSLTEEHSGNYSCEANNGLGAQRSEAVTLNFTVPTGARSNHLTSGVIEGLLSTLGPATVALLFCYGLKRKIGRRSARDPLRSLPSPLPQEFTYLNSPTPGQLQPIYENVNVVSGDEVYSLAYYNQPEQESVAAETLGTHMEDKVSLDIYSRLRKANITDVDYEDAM
As to the kind of experiment: phage clone on 3T3-FcRL1 cells.

Assay [2] deals with T2, FcRL2, overexpressed on 3T3 cells (UniProt Q96LA5 20-508, limits assumed).
T2 construct: whole, on cells
T2 sequence (looked up): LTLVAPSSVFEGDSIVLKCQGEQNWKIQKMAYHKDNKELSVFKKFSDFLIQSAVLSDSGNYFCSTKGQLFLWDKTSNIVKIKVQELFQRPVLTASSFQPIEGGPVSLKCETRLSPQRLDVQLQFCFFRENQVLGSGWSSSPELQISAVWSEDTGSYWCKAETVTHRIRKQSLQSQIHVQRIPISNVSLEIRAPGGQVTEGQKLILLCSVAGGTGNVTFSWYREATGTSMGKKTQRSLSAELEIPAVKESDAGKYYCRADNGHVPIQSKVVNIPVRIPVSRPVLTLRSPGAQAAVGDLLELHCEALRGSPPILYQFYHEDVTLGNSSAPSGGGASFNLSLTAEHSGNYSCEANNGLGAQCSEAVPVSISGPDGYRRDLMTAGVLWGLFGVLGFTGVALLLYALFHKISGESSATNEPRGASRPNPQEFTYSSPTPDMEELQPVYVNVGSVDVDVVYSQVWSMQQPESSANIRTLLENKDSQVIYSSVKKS
As to the kind of experiment: phage clone on 3T3-FcRL2 cells.

The target of assay [3] is T3, FcRL3, overexpressed on 3T3 cells (UniProt Q96P31 18-734, limits assumed).
T3 construct: whole, on cells
T3 sequence (looked up): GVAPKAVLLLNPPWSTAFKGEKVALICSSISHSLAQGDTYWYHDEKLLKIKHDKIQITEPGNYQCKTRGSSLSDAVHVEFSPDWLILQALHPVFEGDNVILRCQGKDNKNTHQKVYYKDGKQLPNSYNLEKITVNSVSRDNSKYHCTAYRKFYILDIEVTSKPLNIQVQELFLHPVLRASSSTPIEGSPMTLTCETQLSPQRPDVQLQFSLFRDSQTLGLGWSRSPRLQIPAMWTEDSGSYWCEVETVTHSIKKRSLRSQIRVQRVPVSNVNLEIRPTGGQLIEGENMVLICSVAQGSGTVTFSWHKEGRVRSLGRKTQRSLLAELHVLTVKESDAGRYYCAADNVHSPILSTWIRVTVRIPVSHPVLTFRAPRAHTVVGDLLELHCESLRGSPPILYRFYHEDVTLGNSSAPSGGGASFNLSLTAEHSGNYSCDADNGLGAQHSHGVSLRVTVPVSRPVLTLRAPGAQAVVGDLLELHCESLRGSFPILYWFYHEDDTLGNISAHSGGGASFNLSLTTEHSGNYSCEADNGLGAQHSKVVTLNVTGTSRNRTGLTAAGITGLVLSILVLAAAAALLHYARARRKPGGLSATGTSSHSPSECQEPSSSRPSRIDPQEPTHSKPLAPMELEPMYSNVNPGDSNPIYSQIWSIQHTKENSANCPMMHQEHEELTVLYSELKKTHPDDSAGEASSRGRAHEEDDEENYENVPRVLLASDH
The experiment in a line: phage clone on 3T3-FcRL3 cells.

Assay [4] addresses T4, Fc Receptor-like 5 (FcRL5), full length, overexpressed on 3T3 or Raji cells (human, UniProt Q96RD9 16-977).
T4 construct: also called 3T3-FcRL5
T4 sequence: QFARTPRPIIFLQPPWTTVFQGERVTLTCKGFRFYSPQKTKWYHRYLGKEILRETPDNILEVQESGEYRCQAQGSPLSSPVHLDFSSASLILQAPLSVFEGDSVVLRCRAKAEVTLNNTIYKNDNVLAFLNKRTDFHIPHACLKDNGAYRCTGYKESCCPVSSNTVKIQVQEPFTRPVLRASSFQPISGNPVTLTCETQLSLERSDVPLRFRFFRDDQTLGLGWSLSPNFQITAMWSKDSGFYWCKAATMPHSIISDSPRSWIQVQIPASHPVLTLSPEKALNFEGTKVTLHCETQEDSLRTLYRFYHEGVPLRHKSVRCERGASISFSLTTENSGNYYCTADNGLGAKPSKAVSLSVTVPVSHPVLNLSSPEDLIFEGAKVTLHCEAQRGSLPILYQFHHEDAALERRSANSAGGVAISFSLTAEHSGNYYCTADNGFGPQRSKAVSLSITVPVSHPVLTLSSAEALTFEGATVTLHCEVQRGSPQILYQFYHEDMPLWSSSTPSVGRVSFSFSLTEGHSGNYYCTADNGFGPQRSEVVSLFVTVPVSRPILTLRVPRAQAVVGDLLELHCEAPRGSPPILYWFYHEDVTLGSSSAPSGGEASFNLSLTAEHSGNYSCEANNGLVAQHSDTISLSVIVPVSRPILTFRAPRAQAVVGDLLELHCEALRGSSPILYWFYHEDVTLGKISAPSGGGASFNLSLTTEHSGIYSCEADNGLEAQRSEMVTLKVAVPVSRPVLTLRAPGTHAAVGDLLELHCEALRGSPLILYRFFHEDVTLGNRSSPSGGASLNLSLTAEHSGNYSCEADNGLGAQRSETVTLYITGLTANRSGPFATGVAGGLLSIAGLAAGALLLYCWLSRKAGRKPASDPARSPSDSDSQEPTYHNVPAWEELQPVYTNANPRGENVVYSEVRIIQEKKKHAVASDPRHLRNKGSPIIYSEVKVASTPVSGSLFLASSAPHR
The experiment in a line: phage clone screening on cells. The method, boiled down:
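Cell-surface binding was read by flow cytometry using anti-M13 coat protein mAb and PE-labelled anti-mouse Ig. Selected scFv phage were screened on FcRL5-overexpressing 3T3 cells, with 3T3 lines bearing FcRL1, 2, 3, 4 or 6 as negative controls.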

SLAMF9 protein, sequence (Q96A28 19-236 limits assumed): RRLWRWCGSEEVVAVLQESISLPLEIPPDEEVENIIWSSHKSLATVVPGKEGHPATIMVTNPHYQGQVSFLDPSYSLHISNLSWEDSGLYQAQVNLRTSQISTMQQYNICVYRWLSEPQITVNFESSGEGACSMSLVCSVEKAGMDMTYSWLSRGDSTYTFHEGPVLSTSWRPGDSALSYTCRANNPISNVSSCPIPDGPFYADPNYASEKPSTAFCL

B1: ET200-009 (scFv)
scFv: QSVLTQPPSASGTPGQTVTISCSGSNSNIGSNYVYWYQQLPGTAPKLLIYRNNQRPSGVPDRFSGSKSGTSASLAISGLRSEDEADYYCAAWDDSLSAYVFGTGTKVTVLGSRGGGGSGGGGSGGGGSLEMAQVQLVQSGAEVKKPGASVKVSCKASGYTFTSYGISWVRQAPGQGLEWMGWISAYNGNTNYAQKLQGRVTMTTDTSTSTAYMELRSLRSDDTAVYYCARSSGNMVSWKDMWGQGTLVTVSSTSGQAGQHHHHHHGAYPYDVPDYAS
notes: screened as phage clone; entry is VL-linker-VH-His tag-HA tag
Turning to B1, the binding result with SLAMF9 protein was “no binding”; in assay [1], “no binding”; in assay [2] it was “no binding”; in assay [3], “no binding”; in assay [4], “binds”.

B2: ET200-010 (scFv)
scFv: QSALTQPASVSGSPGQSITISCTGTSSDVGGYNSVSWYQQHPGKAPRLMIYDVSNRPSGVSNRFSGSKSGNTASLTISGLQAEDEADYYCSSYTSSSTPLVFGTGTKVTVLGSRGGGGSGGGGSGGGGSLEMAQVQLVQSGAEVKKPGASVKVSCKASGYTFTSYGISWVRQAPGQGLEWMGWISAYNGNTNYAQKLQGRVTMTTDTSTSTAYMELRSLRSDDTAVYYCARGAVAYHDWGQGTLVTVSSTSGQAGQHHHHHHGAYPYDVPDYAS
notes: as for B1
In the case of B2, the binding result with SLAMF9 protein is on record as “no binding”; in assay [1], “no binding”; in assay [2] it was “no binding”; in assay [3], “no binding”; in assay [4], “binds”.
